# Test results: patent US9752168B2, “Compositions comprising a polypeptide having cellulolytic enhancing activity and a quinone compound and uses thereof” (priority 2010, dated 2017)
# Tests used:
# [1] = test system: Trichoderma reesei cellulase composition; assay: Hydrolysis of AVICEL® (microcrystalline cellulose) by the T. reesei cellulase composition; settings: no quinone compound, cellulase 4 mg protein/g cellulose, GH61 polypeptide where present 0.4 mg/g cellulose (10% w/w of cellulase)
# [2] = test system: T. reesei cellulase composition; assay: Enhancement of microcrystalline cellulose cellulolysis by the T. reesei cellulase composition using combinations of compounds and various GH61 polypeptides; settings: mixtures of compounds at 3 mM
molecule,measurement,setting,value
"A. fumigatus GH61B polypeptide: GH61 polypeptide having cellulolytic enhancing activity (SEQ ID NO: 30), recombinantly prepared according to WO 2010/138754 (protein, listed as Aspergillus fumigatus) MTLSKITSIAGLLASASLVAGHGFVSGIVADGKYYGGYLVNQYPYMSNPPDTIAWSTTATDLGFVDGTGYQSPDIICHRDAKNGKLTATVAAGSQIEFQWTTWPESHHGPLITYLAPCNGDCATVDKTTLKFVKIAAQGLIDGSNPPGVWADDEMIANNNTATVTIPASYAPGNYVLRHEIIALHSAGNLNGAQNYPQCFNIQITGGGSAQGSGTAGTSLYKNTDPGIKFDIYSDLSGGYPIPGPALFNA",Percent conversion of AVICEL®,[1]; 1 day,13.7±0.2%
same,Percent conversion of AVICEL®,[1]; 3 days,29±1%
same,Percent conversion of AVICEL®,[1]; 7 days,46±2%
same,"overall conversion of AVICEL®, comparison among GH61 polypeptides",[2],highest overall conversion
